Here are results for 2 molecules from US20210395393A1.

The EC50 is the concentration at which the effect is half-maximal.

In the test the target is TPA mutant tenecteplase (human) (UniProt P00750). Nature of the test: binding ELISA, plate coated with tenecteplase.
Sequence of TPA mutant tenecteplase (human) (P00750 36-562, change not shown): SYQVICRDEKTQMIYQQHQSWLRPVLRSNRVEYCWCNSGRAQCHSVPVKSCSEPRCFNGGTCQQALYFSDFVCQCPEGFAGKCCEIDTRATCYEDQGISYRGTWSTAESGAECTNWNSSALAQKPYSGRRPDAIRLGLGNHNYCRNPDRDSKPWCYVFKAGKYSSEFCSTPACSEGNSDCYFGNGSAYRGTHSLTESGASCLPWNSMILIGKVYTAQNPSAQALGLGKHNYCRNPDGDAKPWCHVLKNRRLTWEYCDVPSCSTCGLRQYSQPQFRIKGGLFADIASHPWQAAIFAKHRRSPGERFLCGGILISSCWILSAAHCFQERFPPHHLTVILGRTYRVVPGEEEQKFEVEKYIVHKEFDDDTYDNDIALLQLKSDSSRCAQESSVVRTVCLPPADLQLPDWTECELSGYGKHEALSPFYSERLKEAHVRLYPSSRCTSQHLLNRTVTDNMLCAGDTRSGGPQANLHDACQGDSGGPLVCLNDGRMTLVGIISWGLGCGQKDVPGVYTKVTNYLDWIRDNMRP

B1: TPAi-1 RHP/RKA (antibody, V domains shown)
VH: QVQLVQSGAEVKKPGASVKVSCKASGNTSYWINWVRQATGQGLEWMGRIDPGGGSTGYAQKFQGRVTMTRDTSISTAYMELSSLRSEDTAVYYCASYYYAMAYWGQGTLVTVSS
VL: DVVMTQSPLSLPVTPGEPASISCRSSQSIVHSNGNTYLDWYLQKPGQSPQLLIYKVSNRASGVPDRFSGSGSGTDFTLKISRVEAEDVGVYYCFQGSHVPWTFGGGTKVEIK
As for B1, the EC50 amounted to 0.633 nM.

B2: TPAi-1 RHP/RKA Fab (Fab, V domains shown)
VH: B1 VH
VL: B1 VL
On to B2, for which the EC50 came to 1.31 nM.
